Experimental data: patent US20130274191A1 (THOMAS JEFFERSON UNIVERSITY, published 2013)
Non-standard residues stand in square brackets, D forms with d. No end group written: not given here. Sar = CNCC(=O)O

Molecular target: T1, human Angiotensin II type 1 receptor (AT1R) (human, UniProt P30556 1-359, limits assumed)
T1 sequence (looked up): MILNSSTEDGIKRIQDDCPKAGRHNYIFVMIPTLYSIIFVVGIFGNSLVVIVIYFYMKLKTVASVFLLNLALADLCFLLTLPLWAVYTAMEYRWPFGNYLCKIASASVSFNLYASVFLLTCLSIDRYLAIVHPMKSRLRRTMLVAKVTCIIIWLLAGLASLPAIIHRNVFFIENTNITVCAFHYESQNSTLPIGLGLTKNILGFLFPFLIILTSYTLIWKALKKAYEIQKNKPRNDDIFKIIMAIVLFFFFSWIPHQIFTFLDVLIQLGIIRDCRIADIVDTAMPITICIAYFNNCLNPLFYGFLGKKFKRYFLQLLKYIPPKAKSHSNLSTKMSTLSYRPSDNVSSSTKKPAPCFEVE
Test: cell-based or functional assay

B1: CORET: Sar^1,Cys(Et)^5,Leu^8-AngII (peptide)
peptide: [Sar]RVY[Cys(Et)]HPL
  βarr activation by the AT1R, potency relative to AngII: 10 times less potent than AngII
